According to FireProtDB (doi:10.1016/j.jmb.2004.06.079):

B1: Malate dehydrogenase, P80040 (parent)
chain: MRKKISIIGAGFVGSTTAHWLAAKELGDIVLLDFVEGVPQGKALDLYEASPIEGFDVRVTGTNNYADTANSDVIVVTSGAPRKPGMSREDLIKVNADITRACISQAAPLSPNAVIIMVNNPLDAMTYLAAEVSGFPKERVIGQAGVLDAARYRTFIAMEAGVSVEDVQAMLMGGHGDEMVPLPRFSTISGIPVSEFIAPDRLAQIVERTRKGGGEIVNLLKTGSAYYAPAAATAQMVEAVLKDKKRVMPVAAYLTGQYGLNDIYFGVPVILGAGGVEKILELPLNEEEMALLNASAKAVRATLDTLKSL

Variants of: B1
Conditions: Chloroflexus aurantiacus (strain ATCC 29366 / DSM 635 / J-10-fl), Thermal, CD, structure 1GUY, whole UniProt chain shown
[1] = pH 6, potassium phosphate 10 mM
[2] = pH 7.5, potassium phosphate 10 mM

Row | Variant | Tm (pH 4.4, sodium acetate 10 mM) | change of melting temperature, mutant - wild type (higher = more stable) (pH 4.4, sodium acetate 10 mM) | Tm [1] | change of melting temperature, mutant - wild type (higher = more stable) [1] | Tm [2] | change of melting temperature, mutant - wild type (higher = more stable) [2]
1 | E165K | 85 °C | 4.6 °C | 91.4 °C | 12 °C | 91.7 °C | 23.9 °C
2 | E165Q | 85.8 °C | 5.4 °C |  |  | 91.4 °C | 23.6 °C
